Source: patent US20250270343A1 (Alector, published 2025)

T1: full-length untagged human GPNMB expressed on cells (human, UniProt Q14956 23-572)
T1 sequence: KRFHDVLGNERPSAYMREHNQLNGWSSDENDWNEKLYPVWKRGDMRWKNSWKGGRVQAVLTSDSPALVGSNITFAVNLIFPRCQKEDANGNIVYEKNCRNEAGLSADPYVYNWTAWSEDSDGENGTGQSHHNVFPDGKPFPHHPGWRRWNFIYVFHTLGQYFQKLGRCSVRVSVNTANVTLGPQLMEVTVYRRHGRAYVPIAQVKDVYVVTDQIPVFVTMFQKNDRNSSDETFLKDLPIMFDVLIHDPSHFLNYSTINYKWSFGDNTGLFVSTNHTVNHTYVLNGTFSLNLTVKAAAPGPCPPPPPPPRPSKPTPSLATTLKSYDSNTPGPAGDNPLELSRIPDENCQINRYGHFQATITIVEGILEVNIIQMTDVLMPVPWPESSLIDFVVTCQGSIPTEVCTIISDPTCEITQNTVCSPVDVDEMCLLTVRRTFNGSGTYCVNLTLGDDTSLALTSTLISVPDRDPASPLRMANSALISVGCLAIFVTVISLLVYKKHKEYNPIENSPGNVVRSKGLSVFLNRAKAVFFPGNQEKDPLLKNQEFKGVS

T2: mouse GPNMB endogenously expressed on B16F10 cells (mouse, UniProt Q99P91 23-574)
T2 construct: whole, on cells; also called moGPNMB
T2 sequence (looked up): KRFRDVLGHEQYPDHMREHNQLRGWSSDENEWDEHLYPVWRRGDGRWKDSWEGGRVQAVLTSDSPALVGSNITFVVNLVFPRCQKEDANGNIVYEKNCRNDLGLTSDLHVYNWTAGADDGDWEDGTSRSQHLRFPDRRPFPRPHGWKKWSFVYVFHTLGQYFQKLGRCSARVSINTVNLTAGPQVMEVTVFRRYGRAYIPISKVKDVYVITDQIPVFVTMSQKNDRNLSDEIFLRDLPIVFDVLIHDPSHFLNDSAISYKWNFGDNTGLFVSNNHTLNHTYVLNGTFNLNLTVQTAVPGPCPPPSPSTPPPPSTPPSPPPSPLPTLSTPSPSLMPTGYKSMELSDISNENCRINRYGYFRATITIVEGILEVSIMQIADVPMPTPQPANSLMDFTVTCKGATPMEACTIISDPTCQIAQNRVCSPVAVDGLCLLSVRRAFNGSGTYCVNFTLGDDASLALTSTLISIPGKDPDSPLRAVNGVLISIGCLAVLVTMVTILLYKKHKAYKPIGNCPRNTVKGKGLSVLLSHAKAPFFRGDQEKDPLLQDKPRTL


Legend:
[1] = molecular target: T1, full-length untagged human GPNMB …; experiment: cell-based or functional assay
[2] = molecular target: T1, full-length untagged human GPNMB …; experiment: FACS, FS293-huGPNMB+ cells
Experimental: (§1) Recombinant anti-GPNMB antibodies of the present disclosure were examined for their ability to bind human and/or mouse GPNMB expressed on Freestyle293-huGPNMB+ or B16F10 cells, respectively. B16F10 cells are a murine melanoma cell line from a C57BL/6J mouse that endogenously express high levels of mouse GPNMB. The antibodies were also tested for their ability to bind to a human macrophage cell line (U937 cells) engineered to express human GPNMB. Cells were harvested, plated at 100,000 cells/well in a 96-well round bottom plate, and incubated in 100 μl FACS buffer (PBS containing 2% FBS, 2 mM EDTA) containing anti-GPNMB monoclonal antibodies of the present disclosure for 30 minutes on ice. Cells were then washed and incubated in 100 ul FACS buffer containing 1 μg/ml APC-conjugated anti-human IgG secondary antibody for 30 minutes in ice. Cells were washed twice in cold FACS buffer and acquired on a BD FACS Canto. Data analysis and calculation of MFI values was performed with FlowJo (TreeStar) software version 10.0.7.
Importantly, several anti-GPNMB antibodies of the present disclosure also bound to the human macrophage cell line U937 cells engineered to express human GPNMB (U937/huGPNMB+) (FIG. 2C). In FIG. 2C, the first data point in each pair corresponds to U937/huGPNMB+ cells, and the second data point in each pair corresponds to U937/huGPNMB− cells. No anti-GPNMB antibodies bound to U937 cells deficient in human GPNMB expression (U937/huGPNMB−).

[3] = molecular target: T1, full-length untagged human GPNMB …; experiment: FACS titration, FS293-huGPNMB+ cells
Experimental: Cell-based binding measurements were also performed to measure the apparent affinities of anti-GPNMB antibodies of the present disclosure to cell-surface expressed GPNMB. Serial dilutions of the monoclonal anti-GPNMB antibodies were added to 100,000 Freestyle293-huGPNMB+ or B16F10 cells and allowed to achieve binding equilibrium at 4° C. After addition of fluorescently labeled secondary antibody and brief washing steps, MFI values as a function of titrated antibody concentration was recorded via FACS analysis. Curves were fit using nonlinear regression analysis with Graphpad Prism 6 software.

[4] = molecular target: T2, mouse GPNMB endogenously expressed on …; experiment: FACS, B16F10 cells
Experimental: as §1, with “10.0.7. […]” for “10.0.7.”

| Binder | CD40 (FoB) [1] [FoB] | CD80 (FoB) [1] [FoB] | GCase (FoB) [1] [FoB] | PDL1 (FoB) [1] [FoB] | MFI fold over background [2] [fold] | EC50 [3] [pM] | MFI fold over background [4] [fold] |
| --- | --- | --- | --- | --- | --- | --- | --- |
| anti-GPNMB antibody GPN-30 (antibody, human IgG1, V domains shown, chimeric) VH: EVQLQQSGPELVNPGASVRISCKASGYSFTGYYMNWVKQSPEKSLEWIGEINPNTGFTTYNQNFKAKATLTVDKSSSTAYIQLKSLTSEDSAVYYCTRPSPSFDYWGQGTTLTVSS VL: DIQMTQSPSSLSASLGERGSLTCRASQEISGHLSWLQQKPDGTIKRLIYAASTLDSGVPKRFSGSRSGSDYSLTISSLESEDFADYYCLQYASYPYTFGGGTKLEIK | 1.75 | 1.34 | 1.27 | 1.64 | 34.4 | 1120 | 1 |
| anti-GPNMB antibody GPN-07 (antibody, human IgG1, V domains shown, chimeric) VH: QVQLQQSGAEQVKPGASVKLSCKASGYTFTSYYMYWVKQRPGQGLEWIGEINPSNGGTYFNEKFKSKATLTVDKSSSTAYMHLSSLTSEDSAVYYCTRGGTYYAYWGQGTLVTVSA VL: DIQMTQSPSSLSASLGERVSLTCRASQEMSGHLSWLQQKPDGTIKRLIYAASTLDSGVPKRFSGSRSGSDYSLTISSLESEDFADYYCLQYASYPYTFGGGTKLEIK | 1.39 | 1.29 | 2.13 | 1.67 | 66.5 | 18400 | 1 |
| anti-GPNMB antibody GPN-31 (antibody, human IgG1, V domains shown, chimeric) VH: EVQLQQSGPELVKPGASVKISCKASGYSFTGYYMNWVKQSPEKNLEWIGEINPNTGGTTYNQKFKAKATLTVDKSSTTAYMQLKSLTSEDSAVYYCTRPASWFDYWGQGTLVTVSA VL: DIQMTQSPSSLSASLGERVSLTCRASQEISGHLSWLQQKPDGTIKRLIYAASTLDSGVPKRFSGRRSGSDYSLTISSLESEDFADYYCLQYASYPYTFGGGTKLAIK | 1.9 | 1.44 | 1.22 | 1.82 | 53.8 | 760 | 1 |
| anti-GPNMB antibody GPN-09 (antibody, human IgG1, V domains shown, chimeric) VH: QVQLQQSGAELVKPGASVKLSCKASGYTFTSYYIYWVKQRPGQGLEWIGEINPSNGGTYFNEKFKNKATLTVDKSSSTAYMQLSSLTSEDSAVYYCTRGGNYYAYWGQGTLVTVSA VL: DIQMTQSPSSLSASLGERVSLTCRASQEISGHLGWLQQKPDGTIKRLIYAALTLDSGVPKRFSGSRSGSDYSLTISSLESEDFADYYCLQYASYPYTFGGGTKLEIK | 1.49 | 1.19 | 1.26 | 1.5 | 35.1 | 1310 | 1 |
| anti-GPNMB antibody GPN-03 (antibody, human IgG1, V domains shown, chimeric) VH: QVQLQQSGPELVKPGASVKLSCKASGYTFTNYYMYWVKQRPGQGLEWIGEINPRNGGTNFNEKFKSKATLTVDKSSSTAYMQLSSLTFEDSAVYYCTTGLAYWGQGTLVTVSA VL: DVVMTQTPLSLPVSLGDQASISCRSSQSLVHSDGNTYLHWYLQKPGQSPKLLIYKVSTRFSGVPDRFSGSGSGTDFTLKISRVEAEDLGVYFCSQSTHVPWTFGGGTKLEIK | 1.45 | 1.4 | 1.47 | 1.32 | 89.2 | 3380 | 1.1 |
| anti-GPNMB antibody GPN-08 (antibody, human IgG1, V domains shown, chimeric) VH: QVQLQQPGAELVKPGASVKLSCRASGYTFTSYWLHWVKQRPGQGLEWIGEINPSDGRTNYIEKVKTKATLTVDKSSSTAYMQLSSLTSEDSAVYYCARSGGNYAWFAYWGQGTLVTVSA VL: DIVMTQSHKFMSTSVGDRVSITCKASQDVSPSVAWYQQRPGQSPKLLIYSASYRYTGVPDRFTGSGSGTDFTFTISSVQAEDLAVYYCQQHYSIPLTFGAGTKLELK | 1.35 | 1.29 | 1.18 | 1.59 | 74.4 | 870 | 1 |

Stronger by EC50 [3], values ahead:

| CD40 (FoB) [1] [FoB] | CD80 (FoB) [1] [FoB] | GCase (FoB) [1] [FoB] | PDL1 (FoB) [1] [FoB] | MFI fold over background [2] [fold] | EC50 [3] [pM] | MFI fold over background [4] [fold] | Binder |
| --- | --- | --- | --- | --- | --- | --- | --- |
| 1.52 | 1.36 | 1.76 | 1.56 | 125 | 410 | 1.1 | anti-GPNMB antibody GPN-34 (antibody, human IgG1, V domains shown, chimeric) VH: EVKLVESGGGLVQPGRSLKLSCAASGFNFYDYWMGWVRQAPGKGLEWIGEINKDSRTINYTPFLKDRFTISRDNAQNTLYLQMSKLGSEDTAIYYCAREGRVPFDYWGQGVMVTVSS VL: DIQMTQSPSSMSVSLGDTVTIPCRASQDVGSYVNWFQQKPGKSPRHMIYRATNLADGVPSRFSGSRSGADYSLTISSLESEDVADYHCQQYAEYPLTFGSGTKLEIK |
| 1.68 | 1.41 | 1.24 | 1.73 | 42.7 | 500 | 1 | anti-GPNMB antibody GPN-25 (antibody, human IgG1, V domains shown, chimeric) VH: EVQLQQSGPELVKPGASVKISCKASGYSFTGYYMNWVKQSPEKSLEWIGEINPGSGITTYNQKFKAKATLTVDKSSSTAYLQLKSLTSEDSAVYYCARPASWFAYWGQGTLVTVSA VL: DIQMTQSPSSLSASLGERVSFICRASQEISGHLSWLQQKPDGTIKRLIYAASTLDSGVPKRFSGSRSGSDYSLTISSLESEDFADYYCLQYASYPYTFGGGTKLEIK |
| 1.7 | 1.16 | 1.21 | 1.76 | 44.8 | 330 | 1 | anti-GPNMB antibody GPN-22 (antibody, human IgG1, V domains shown, chimeric) VH: QVQLQQPGAERVKPGASVKMSCKASGYTFTSYWITWVKQRPGQGLEWIGDIFPGSGSTNYHEKFKSKATLTVDTSSSTAYMQLSSLTSEDSAVYYCSRGYFGSSFSDYWGQGTSVTVSS VL: DIQMTQSPSSLSASLGERVSLTCRTSQEISGYLSWLQQKPDGTIKRLIYSTSTLDSGVPKRFSGSRSGSDYSLTISSLESEDFADYYCLQYASSPPTFGSGTKLEIK |
